According to patent publication US20230235048A1:

Biological target: human sortilin on the cell surface (recombinant huSortilin on HEK 293 cells; endogenous on U251MG cells) (human), Q99523
Test: flow cytometry, hPGRN-biotin on hSortilin HEK cells clone A (note under the bar chart)
Details: remark: other sources report otherwise

Chain of human sortilin on the cell surface (recombinant huSortilin on HEK 293 cells; endogenous on U251MG cells) (human), Q99523 (Q99523 78-831): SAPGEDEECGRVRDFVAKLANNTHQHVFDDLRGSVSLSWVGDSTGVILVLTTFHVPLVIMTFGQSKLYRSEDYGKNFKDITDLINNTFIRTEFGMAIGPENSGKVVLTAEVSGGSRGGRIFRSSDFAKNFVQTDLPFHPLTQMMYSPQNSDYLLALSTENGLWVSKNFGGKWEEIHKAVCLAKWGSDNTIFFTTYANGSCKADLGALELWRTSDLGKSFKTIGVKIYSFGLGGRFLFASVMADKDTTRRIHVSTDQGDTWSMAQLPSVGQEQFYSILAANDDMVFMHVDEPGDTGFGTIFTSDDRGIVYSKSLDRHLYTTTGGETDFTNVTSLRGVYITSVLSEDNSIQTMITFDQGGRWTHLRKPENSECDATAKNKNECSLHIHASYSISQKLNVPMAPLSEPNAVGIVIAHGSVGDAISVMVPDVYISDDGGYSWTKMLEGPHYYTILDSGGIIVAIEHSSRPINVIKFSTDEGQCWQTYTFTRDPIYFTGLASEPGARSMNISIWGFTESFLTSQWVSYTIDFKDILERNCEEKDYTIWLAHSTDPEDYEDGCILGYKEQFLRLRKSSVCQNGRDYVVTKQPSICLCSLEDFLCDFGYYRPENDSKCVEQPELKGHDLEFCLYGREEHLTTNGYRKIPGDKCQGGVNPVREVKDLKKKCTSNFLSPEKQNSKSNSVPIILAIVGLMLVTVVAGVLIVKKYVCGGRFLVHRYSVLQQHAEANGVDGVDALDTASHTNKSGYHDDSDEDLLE

B1: human progranulin, biotinylated (huPGRN-Biotin), P28799 18-593 (ligand, UniProt P28799 18-593, looked up)
chain: TRCPDGQFCPVACCLDPGGASYSCCRPLLDKWPTTLSRHLGGPCQVDAHCSAGHSCIFTVSGTSSCCPFPEAVACGDGHHCCPRGFHCSADGRSCFQRSGNNSVGAIQCPDSQFECPDFSTCCVMVDGSWGCCPMPQASCCEDRVHCCPHGAFCDLVHTRCITPTGTHPLAKKLPAQRTNRAVALSSSVMCPDARSRCPDGSTCCELPSGKYGCCPMPNATCCSDHLHCCPQDTVCDLIQSKCLSKENATTDLLTKLPAHTVGDVKCDMEVSCPDGYTCCRLQSGAWGCCPFTQAVCCEDHIHCCPAGFTCDTQKGTCEQGPHQVPWMEKAPAHLSLPDPQALKRDVPCDNVSSCPSSDTCCQLTSGEWGCCPIPEAVCCSDHQHCCPQGYTCVAEGQCQRGSEIVAGLEKMPARRASLSHPRDIGCDQHTSCPVGQTCCPSLGGSWACCQLPHAVCCEDRQHCCPAGYTCNVKARSCEKEVVSAQPATFLARSPHVGVKDVECGEGHFCHDNQTCCRDNRQGWACCPYRQGVCCADRRHCCPAGFRCAARGTKCLRREAPRWDAPLRDPALRQLL
modifications: here or on the partner: biotinylated at a ratio of 5:1 using EZ-Link NHS-PEG4-Biotin
  ED50: 0.03 µM
